Substrate in the series: Cc1cc(=O)oc2cc(O[C@@H]3O[C@H](CO)[C@@H](O[C@@H]4O[C@H](CO)[C@@H](O)[C@H](O)[C@H]4O)[C@H](O)[C@H]3O)ccc12
Briefly: Michaelis-Menten kinetics of purified E1 (produced in P. pastoris, IMAC purified): cleavage of MUC to cellobiose and MU at various temperatures. Format: biochemical, Acidothermus cellulolyticus. The note with it: substrate MUC, from Lineweaver-Burk fit. The method, then:
Endoglucanase activity assay: Endoglucanase (E1) cleaves methylumbelliferyl-tagged cellobiose (MUC), releasing methylumbelliferone (MU). The MU fluorescence can be measured to determine E1 activity. The relative fluorescence readings of 0.024 to 3.0 μM MU solutions were used to create a linear standard curve. Samples containing E1 were diluted so the concentration of MU released fell within the standard curve. A 60 μl aliquot of diluted supernatant was added to 540 μl of acetate buffer (200 mM acetate, pH 5.5, 100 mM NaCl) and 200 μl of substrate (500 μM MUC). 200 μl of reaction was sampled at time zero and after 30 minutes and added to 800 μl of stop buffer (150 mM glycine, pH 10). The change in fluorescence over time was measured with a VersaFluor fluorometer (Bio-Rad). Fluorescence was converted to an activity, and the specific activity reported in the literature was used to approximate the concentration of E1 in Pichia supernatants. The Michaelis-Menten kinetic parameters of purified endoglucanase were determined. The E1 was produced in P. pastoris and purified by IMAC (immobilized metal affinity chromatography). E1 cleaves the substrate (MUC) into cellobiose and a fluorophore (MU), the concentration of which can be monitored over time. When run at 65° C. and […] substrate, this is the reaction used for the activity assay for E1 in plant extracts and yeast cultures. In this set of experiments, the substrate concentration was varied to determine the kinetic parameters at different temperatures. The rate for a reaction displaying Michaelis-Menten kinetics is shown in Equation 1. The rate depends on the catalysis rate (kcat), the total enzyme concentration (ET), the adsorption/desorption rates which are lumped into the Michaelis-Menten constant (KM), and the substrate concentration (S). At high substrate concentrations (S>>KM), the rate approaches a maximum, and […] is often written as Vmax. The parameters Vmax and KM can be determined experimentally by varying the substrate concentration (S) and measuring the reaction rate (V) at each concentration. Equation 1 can be rearranged as a linear equation (Equation 2). When the reciprocal of the reaction rate (V) is plotted against the reciprocal of the substrate concentration (S), a line fitting the data points can be used to determine KM/Vmax (the slope) and 1/Vmax (y-intercept). A Bradford assay was used to determine the E1 protein concentration in each sample, and this value of ET was used to calculate the kcat values in Table 1. Table 1 depicts a summary of Michaelis-Menten parameters for E1-catalyzed degradation of MUC to MU at various temperatures.

[1] abbreviates: other: 93 °C, uncertainty approaches 100%, not used further, 93.0 °C.

In general, Km refers to the substrate concentration at which the rate is half of its maximum. By Vmax is commonly meant the top rate of the reaction or transport when substrate is in excess.

B1: Acidothermus cellulolyticus β-1,4-endoglucanase E1 (P. pastoris-produced) (Acidothermus cellulolyticus 11B) (protein)
chain: AGGGYWHTSGREILDANNVPVRIAGINWFGFETCNYVVHGLWSRDYRSMLDQIKSLGYNTIRLPYSDDILKPGTMPNSINFYQMNQDLQGLTSLQVMDKIVAYAGQIGLRIILDRHRPDCSGQSALWYTSSVSEATWISDLQALAQRYKGNPTVVGFDLHNEPHDPACWGCGDPSIDWRLAAERAGNAVLSVNPNLLIFVEGVQSYNGDSYWWGGNLQGAGQYPVVLNVPNRLVYSAHDYATSVYPQTWFSDPTFPNNMPGIWNKNWGYLFNQNIAPVWLGEFGTTLQSTTDQTWLKTLVQYLRPTAQYGADSFQWTFWSWNPDSGDTGGILKDDWQTVDTVKDGYLAPIKSSIFDPVGASASPSSQPSPSVSPSPSPSPSASRTPTPTPTPTASPTPTLTPTATPTPTASPTPSPTAASGARCTASYQVNSDWGNGFTVTVAVTNSGSVATKTWTVSWTFGGNQTITNSWNAAVTQNGQSVTARNMSYNNVIQPGQNTTFGFQASYTGSNAAPTVACAASHHHHHH
On to B1, for which the Km (other: 50 °C, 50.0 °C) is 59 ± 3 µM; the Km (other: 65 °C, 65.0 °C) worked out at 131 ± 4 µM; the Km (other: 80 °C, 80.0 °C) was 372 ± 50 µM; the Km under setting [1] is 576 ± 570 µM. Moreover, the Vmax (other: 50 °C, 50.0 °C) stood at 0.083 µM/min; the Vmax (other: 65 °C, 65.0 °C) came out at 0.242 µM/min; the Vmax (other: 80 °C, 80.0 °C) came out at 0.523 µM/min; the Vmax under setting [1] was found to be 0.229 µM/min.

These data come from patent US8993839B2, “Plant-based production of heterologous proteins” (The Regents of the University of California, priority 2010, dated 2015).
